Experimental data taken from PMC13397619.

B1: NLV3 TCR beta chain (CDR3β only) (parent)
chain: ASSPTGGSPSPLH
partner: MLVPMVATV

Variants of: B1
Experiment: T-Switch: Jurkat TCRβ−/− cells expressing a CDR3 saturation-mutagenesis library, stained with two peptide-HLA-A*02:01 tetramers (original and novel peptide) plus anti-CD3, FACS-sorted into four gates, gDNA sequenced
Conditions: with HLA-A*02:01 with peptide … (NLV 3-1, the original bait), tetramers 1 µg/mL, 30 min on ice, DP and SW gates expanded about 10 days between rounds ('two to three rounds of selection' in the Methods), gate SP: higher = more of the variant in the gate that binds the original peptide and not the novel one = retained original binding. Fold enrichment of the CDR3 variant in one FACS gate of a two-tetra, unresolved parent, parent is a CDR3 fragment, scale: fold enrichment, numbering: sequential-on-construct, sequence …
[…] (CDR3 as printed); P11G derived by comparing it with the table's wild-type CDR3 ASSPTGGSPSPLH gave an enrichment of 0. […] (CDR3 as printed); P4K derived by comparing it with the table's wild-type CDR3 ASSPTGGSPSPLH was tested, and the enrichment was 0. Work on […] (CDR3 as printed); T5H derived by comparing it with the table's wild-type CDR3 ASSPTGGSPSPLH yielded an enrichment of 1.12. […] (CDR3 as printed); P9W derived by comparing it with the table's wild-type CDR3 ASSPTGGSPSPLH gave an enrichment of 0. […] (CDR3 as printed); A1E derived by comparing it with the table's wild-type CDR3 ASSPTGGSPSPLH was tested, and the enrichment was 0. In the case of […] (CDR3 as printed); A1M derived by comparing it with the table's wild-type CDR3 ASSPTGGSPSPLH, the enrichment is reported as 0. […] (CDR3 as printed); S10W derived by comparing it with the table's wild-type CDR3 ASSPTGGSPSPLH showed an enrichment of 0. Variant […] (CDR3 as printed); P4I derived by comparing it with the table's wild-type CDR3 ASSPTGGSPSPLH has an enrichment of 0.897. […] (CDR3 as printed); S8P derived by comparing it with the table's wild-type CDR3 ASSPTGGSPSPLH gave an enrichment of 0. In the case of […] (CDR3 as printed); T5E derived by comparing it with the table's wild-type CDR3 ASSPTGGSPSPLH, the enrichment is reported as 0. Variant […] (CDR3 as printed); P4W derived by comparing it with the table's wild-type CDR3 ASSPTGGSPSPLH has an enrichment of 0. For […] (CDR3 as printed); S3G derived by comparing it with the table's wild-type CDR3 ASSPTGGSPSPLH, the enrichment was 9.71. Variant […] (CDR3 as printed); S3Q derived by comparing it with the table's wild-type CDR3 ASSPTGGSPSPLH has an enrichment of 0. […] (CDR3 as printed); A1D derived by comparing it with the table's wild-type CDR3 ASSPTGGSPSPLH showed an enrichment of 0. With […] (CDR3 as printed); S2P derived by comparing it with the table's wild-type CDR3 ASSPTGGSPSPLH the enrichment was 0. […] (CDR3 as printed); P11R derived by comparing it with the table's wild-type CDR3 ASSPTGGSPSPLH gave an enrichment of 9.69. For […] (CDR3 as printed); G6T derived by comparing it with the table's wild-type CDR3 ASSPTGGSPSPLH, the enrichment was 0.64. In the case of […] (CDR3 as printed); P11I derived by comparing it with the table's wild-type CDR3 ASSPTGGSPSPLH, the enrichment is reported as 1.23. […] (CDR3 as printed); T5C derived by comparing it with the table's wild-type CDR3 ASSPTGGSPSPLH gave an enrichment of 0. […] (CDR3 as printed); S8Q derived by comparing it with the table's wild-type CDR3 ASSPTGGSPSPLH gave an enrichment of 0. […] (CDR3 as printed); L12M derived by comparing it with the table's wild-type CDR3 ASSPTGGSPSPLH showed an enrichment of 2.27. […] (CDR3 as printed); S10V derived by comparing it with the table's wild-type CDR3 ASSPTGGSPSPLH showed an enrichment of 0. For […] (CDR3 as printed); S10Q derived by comparing it with the table's wild-type CDR3 ASSPTGGSPSPLH, the enrichment was 5.52. With […] (CDR3 as printed); S10D derived by comparing it with the table's wild-type CDR3 ASSPTGGSPSPLH the enrichment was 0.543. In the case of […] (CDR3 as printed); S8F derived by comparing it with the table's wild-type CDR3 ASSPTGGSPSPLH, the enrichment is reported as 0. Work on […] (CDR3 as printed); S2G derived by comparing it with the table's wild-type CDR3 ASSPTGGSPSPLH yielded an enrichment of 1.01. With […] (CDR3 as printed); S3L derived by comparing it with the table's wild-type CDR3 ASSPTGGSPSPLH the enrichment was 0. […] (CDR3 as printed); H13L derived by comparing it with the table's wild-type CDR3 ASSPTGGSPSPLH showed an enrichment of 5.69. […] (CDR3 as printed); H13G derived by comparing it with the table's wild-type CDR3 ASSPTGGSPSPLH gave an enrichment of 0.848. Work on […] (CDR3 as printed); H13W derived by comparing it with the table's wild-type CDR3 ASSPTGGSPSPLH yielded an enrichment of 8.46. […] (CDR3 as printed); H13K derived by comparing it with the table's wild-type CDR3 ASSPTGGSPSPLH was tested, and the enrichment was 3.5. […] (CDR3 as printed); S2F derived by comparing it with the table's wild-type CDR3 ASSPTGGSPSPLH showed an enrichment of 3.1. With […] (CDR3 as printed); G6V derived by comparing it with the table's wild-type CDR3 ASSPTGGSPSPLH the enrichment was 0. In the case of […] (CDR3 as printed); H13Q derived by comparing it with the table's wild-type CDR3 ASSPTGGSPSPLH, the enrichment is reported as 5.02. With […] (CDR3 as printed); L12N derived by comparing it with the table's wild-type CDR3 ASSPTGGSPSPLH the enrichment was 0. […] (CDR3 as printed); P11H derived by comparing it with the table's wild-type CDR3 ASSPTGGSPSPLH was tested, and the enrichment was 0. Variant […] (CDR3 as printed); S8L derived by comparing it with the table's wild-type CDR3 ASSPTGGSPSPLH has an enrichment of 0. For […] (CDR3 as printed); P4A derived by comparing it with the table's wild-type CDR3 ASSPTGGSPSPLH, the enrichment was 1.98. For […] (CDR3 as printed); S8W derived by comparing it with the table's wild-type CDR3 ASSPTGGSPSPLH, the enrichment was 0. […] (CDR3 as printed); A1Q derived by comparing it with the table's wild-type CDR3 ASSPTGGSPSPLH gave an enrichment of 0. For […] (CDR3 as printed); G6P derived by comparing it with the table's wild-type CDR3 ASSPTGGSPSPLH, the enrichment was 0. With […] (CDR3 as printed); S10N derived by comparing it with the table's wild-type CDR3 ASSPTGGSPSPLH the enrichment was 0. Work on […] (CDR3 as printed); S2I derived by comparing it with the table's wild-type CDR3 ASSPTGGSPSPLH yielded an enrichment of 0. Variant […] (CDR3 as printed); S8M derived by comparing it with the table's wild-type CDR3 ASSPTGGSPSPLH has an enrichment of 0. With […] (CDR3 as printed); G6R derived by comparing it with the table's wild-type CDR3 ASSPTGGSPSPLH the enrichment was 0. […] (CDR3 as printed); T5D derived by comparing it with the table's wild-type CDR3 ASSPTGGSPSPLH was tested, and the enrichment was 0. […] (CDR3 as printed); S10T derived by comparing it with the table's wild-type CDR3 ASSPTGGSPSPLH showed an enrichment of 0. […] (CDR3 as printed); T5Q derived by comparing it with the table's wild-type CDR3 ASSPTGGSPSPLH was tested, and the enrichment was 0. […] (CDR3 as printed); T5W derived by comparing it with the table's wild-type CDR3 ASSPTGGSPSPLH was tested, and the enrichment was 15.1. With […] (CDR3 as printed); H13C derived by comparing it with the table's wild-type CDR3 ASSPTGGSPSPLH the enrichment was 6.06. […] (CDR3 as printed); P9K derived by comparing it with the table's wild-type CDR3 ASSPTGGSPSPLH showed an enrichment of 0. With […] (CDR3 as printed); S8I derived by comparing it with the table's wild-type CDR3 ASSPTGGSPSPLH the enrichment was 0. In the case of […] (CDR3 as printed); G6Y derived by comparing it with the table's wild-type CDR3 ASSPTGGSPSPLH, the enrichment is reported as 0. Work on […] (CDR3 as printed); G7Q derived by comparing it with the table's wild-type CDR3 ASSPTGGSPSPLH yielded an enrichment of 0. For […] (CDR3 as printed); P11W derived by comparing it with the table's wild-type CDR3 ASSPTGGSPSPLH, the enrichment was 0. Variant […] (CDR3 as printed); S2R derived by comparing it with the table's wild-type CDR3 ASSPTGGSPSPLH has an enrichment of 0. Variant […] (CDR3 as printed); P9N derived by comparing it with the table's wild-type CDR3 ASSPTGGSPSPLH has an enrichment of 0. In the case of […] (CDR3 as printed); P9R derived by comparing it with the table's wild-type CDR3 ASSPTGGSPSPLH, the enrichment is reported as 0. […] (CDR3 as printed); G6Q derived by comparing it with the table's wild-type CDR3 ASSPTGGSPSPLH showed an enrichment of 0. […] (CDR3 as printed); T5S derived by comparing it with the table's wild-type CDR3 ASSPTGGSPSPLH was tested, and the enrichment was 0. […] (CDR3 as printed); G6H derived by comparing it with the table's wild-type CDR3 ASSPTGGSPSPLH gave an enrichment of 0. For […] (CDR3 as printed); H13E derived by comparing it with the table's wild-type CDR3 ASSPTGGSPSPLH, the enrichment was 4.01. Variant […] (CDR3 as printed); P11L derived by comparing it with the table's wild-type CDR3 ASSPTGGSPSPLH has an enrichment of 2.19. In the case of […] (CDR3 as printed); H13N derived by comparing it with the table's wild-type CDR3 ASSPTGGSPSPLH, the enrichment is reported as 7.17. In the case of […] (CDR3 as printed); S3V derived by comparing it with the table's wild-type CDR3 ASSPTGGSPSPLH, the enrichment is reported as 0. In the case of […] (CDR3 as printed); P11A derived by comparing it with the table's wild-type CDR3 ASSPTGGSPSPLH, the enrichment is reported as 7.15. For […] (CDR3 as printed); P9L derived by comparing it with the table's wild-type CDR3 ASSPTGGSPSPLH, the enrichment was 1.13. Work on […] (CDR3 as printed); P9H derived by comparing it with the table's wild-type CDR3 ASSPTGGSPSPLH yielded an enrichment of 0. Work on […] (CDR3 as printed); L12R derived by comparing it with the table's wild-type CDR3 ASSPTGGSPSPLH yielded an enrichment of 0. With […] (CDR3 as printed); G7D derived by comparing it with the table's wild-type CDR3 ASSPTGGSPSPLH the enrichment was 0. In the case of […] (CDR3 as printed); L12A derived by comparing it with the table's wild-type CDR3 ASSPTGGSPSPLH, the enrichment is reported as 0. Work on […] (CDR3 as printed); G6M derived by comparing it with the table's wild-type CDR3 ASSPTGGSPSPLH yielded an enrichment of 0. […] (CDR3 as printed); H13F derived by comparing it with the table's wild-type CDR3 ASSPTGGSPSPLH was tested, and the enrichment was 4.3. Work on […] (CDR3 as printed); G7I derived by comparing it with the table's wild-type CDR3 ASSPTGGSPSPLH yielded an enrichment of 0. Variant […] (CDR3 as printed); S10P derived by comparing it with the table's wild-type CDR3 ASSPTGGSPSPLH has an enrichment of 0. […] (CDR3 as printed); L12K derived by comparing it with the table's wild-type CDR3 ASSPTGGSPSPLH was tested, and the enrichment was 0. […] (CDR3 as printed); P4Y derived by comparing it with the table's wild-type CDR3 ASSPTGGSPSPLH was tested, and the enrichment was 1.03. For […] (CDR3 as printed); P4R derived by comparing it with the table's wild-type CDR3 ASSPTGGSPSPLH, the enrichment was 0.316. Work on […] (CDR3 as printed); S3E derived by comparing it with the table's wild-type CDR3 ASSPTGGSPSPLH yielded an enrichment of 0. In the case of […] (CDR3 as printed); P4S derived by comparing it with the table's wild-type CDR3 ASSPTGGSPSPLH, the enrichment is reported as 0.723. In the case of […] (CDR3 as printed); G6L derived by comparing it with the table's wild-type CDR3 ASSPTGGSPSPLH, the enrichment is reported as 0. In the case of […] (CDR3 as printed); S8C derived by comparing it with the table's wild-type CDR3 ASSPTGGSPSPLH, the enrichment is reported as 0. Variant […] (CDR3 as printed); S2C derived by comparing it with the table's wild-type CDR3 ASSPTGGSPSPLH has an enrichment of 5.16. […] (CDR3 as printed); P4E derived by comparing it with the table's wild-type CDR3 ASSPTGGSPSPLH showed an enrichment of 3.03.

Same assay, conditions: with HLA-A*02:01 with peptide … (NLV 3-1, the original bait), tetramers 1 µg/mL, 30 min on ice, DP and SW gates expanded about 10 days between rounds ('two to three rounds of selection' in the Methods), gate SP: higher = more of the variant in the gate that binds the original peptide and not the novel one = retained original binding. Fold enrichment of the CDR3 variant in one FACS gate of a two-tetra, unresolved parent, parent is a CDR3 fragment, zero in all gates, scale: fold enrichment, numbering: …
Variant […] (CDR3 as printed); S2L derived by comparing it with the table's wild-type CDR3 ASSPTGGSPSPLH has an enrichment of 0.
